Measured values from paper PMC7057950 (2020).

Molecular target: the molecule itself

B1: hHsp90β (protein)
chain: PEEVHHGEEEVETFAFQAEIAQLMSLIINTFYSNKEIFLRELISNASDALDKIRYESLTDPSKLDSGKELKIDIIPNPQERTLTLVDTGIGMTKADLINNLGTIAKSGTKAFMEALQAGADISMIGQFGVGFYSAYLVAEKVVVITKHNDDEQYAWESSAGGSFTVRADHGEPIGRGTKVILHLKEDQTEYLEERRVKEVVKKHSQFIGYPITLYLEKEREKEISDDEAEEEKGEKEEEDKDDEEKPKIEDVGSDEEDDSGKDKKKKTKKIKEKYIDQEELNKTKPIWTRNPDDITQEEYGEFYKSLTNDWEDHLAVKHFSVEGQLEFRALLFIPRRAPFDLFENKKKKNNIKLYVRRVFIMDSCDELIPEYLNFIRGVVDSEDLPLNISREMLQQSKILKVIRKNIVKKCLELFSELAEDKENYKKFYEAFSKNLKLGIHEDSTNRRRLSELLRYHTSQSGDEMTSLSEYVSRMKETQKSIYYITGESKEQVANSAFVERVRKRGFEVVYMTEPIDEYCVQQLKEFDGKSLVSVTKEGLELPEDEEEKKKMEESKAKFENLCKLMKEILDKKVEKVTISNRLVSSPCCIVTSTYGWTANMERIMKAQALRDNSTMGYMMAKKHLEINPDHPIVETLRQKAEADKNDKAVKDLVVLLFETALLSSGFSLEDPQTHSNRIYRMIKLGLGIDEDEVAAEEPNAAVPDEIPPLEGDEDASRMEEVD
**Q.** For B1, which Kd is on record?
**A.** ~9.5 nM
